Experimental findings from patent US20070185028A1 (published 2007) are described below.

No end group written: not given here.

Experiment [1] concerns the target T1, Human γD crystallin (human, UniProt P07320 2-174, limits assumed).
T1 construct: Used unheated (23° C) and pre-heated (45° C, 15 min)
T1 sequence (looked up): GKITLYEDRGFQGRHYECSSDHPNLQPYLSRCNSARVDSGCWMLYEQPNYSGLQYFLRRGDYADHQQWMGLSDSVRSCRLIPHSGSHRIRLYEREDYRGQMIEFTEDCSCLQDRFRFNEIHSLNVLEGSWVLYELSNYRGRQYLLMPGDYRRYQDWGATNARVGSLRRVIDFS
Description: protein pin array ELISA, A450; listed as peak peptide with unheated and pre-heated target. Background: An ELISA detects its analyte on a solid surface through an enzyme-linked reagent.

The target in experiment [2] is T2, Porcine Citrate synthase (porcine, UniProt P00889 28-464).
T2 construct: also called CS
T2 sequence (looked up): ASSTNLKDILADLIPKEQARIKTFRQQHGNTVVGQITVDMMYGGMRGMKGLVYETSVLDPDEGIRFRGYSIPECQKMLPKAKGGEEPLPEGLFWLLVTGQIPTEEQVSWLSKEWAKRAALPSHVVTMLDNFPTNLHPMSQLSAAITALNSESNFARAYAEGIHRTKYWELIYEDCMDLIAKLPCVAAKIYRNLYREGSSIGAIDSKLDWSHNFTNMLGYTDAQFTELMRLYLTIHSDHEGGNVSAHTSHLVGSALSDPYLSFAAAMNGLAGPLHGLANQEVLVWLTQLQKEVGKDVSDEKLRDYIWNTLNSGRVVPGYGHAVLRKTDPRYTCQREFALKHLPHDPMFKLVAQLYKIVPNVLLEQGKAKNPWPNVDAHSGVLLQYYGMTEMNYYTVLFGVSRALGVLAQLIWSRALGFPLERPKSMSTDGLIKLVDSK
Described as above.

For the next experiment, the target named is transthyretin (UniProt P02766 21-147). Description: cell-based or functional assay.
The next experiment deals with β2-microglobulin (UniProt P61769 21-119). Kind of experiment: cell-based or functional assay.
A further experiment addresses Amyloid-beta (1-42) (UniProt P05067). Kind of experiment: cell-based or functional assay.
For the next experiment, the target named is beta amyloid (UniProt P05067 672-713, limits assumed). Description: cell-based or functional assay.
Experiment [3] has as its target T1, Human γD crystallin. Kind of experiment: cell-based or functional assay.
For experiment [4], the target named is T2, Porcine Citrate synthase. Description: protein pin array.
A further experiment concerns the target Bovine βH crystallin (bovine). Description: cell-based or functional assay.
Experiment [5] has as its target Equine Alcohol dehydrogenase (equine, UniProt P00327 2-375). Kind of experiment: cell-based or functional assay.

β2-microglobulin, sequence (P61769 21-119 limits assumed): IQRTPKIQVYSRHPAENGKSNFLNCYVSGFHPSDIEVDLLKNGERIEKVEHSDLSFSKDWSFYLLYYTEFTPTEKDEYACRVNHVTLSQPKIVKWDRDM
Equine Alcohol dehydrogenase, sequence (P00327 2-375 limits assumed): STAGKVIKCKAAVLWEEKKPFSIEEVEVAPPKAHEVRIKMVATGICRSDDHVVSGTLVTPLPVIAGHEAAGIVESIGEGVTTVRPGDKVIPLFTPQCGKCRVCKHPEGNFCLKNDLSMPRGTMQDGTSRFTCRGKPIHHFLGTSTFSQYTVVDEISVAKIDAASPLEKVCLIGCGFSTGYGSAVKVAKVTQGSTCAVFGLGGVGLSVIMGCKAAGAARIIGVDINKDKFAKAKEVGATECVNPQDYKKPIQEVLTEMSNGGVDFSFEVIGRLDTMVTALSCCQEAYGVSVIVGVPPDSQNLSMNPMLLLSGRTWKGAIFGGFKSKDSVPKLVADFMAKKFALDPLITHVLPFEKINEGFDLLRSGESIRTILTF

B1: DQFFGEHL (peptide)
peptide: DQFFGEHL
notes: pin-immobilised 8-mer of human αB crystallin; also called peptide 13
With B1, the binding result with Human γD crystallin [1] is recorded as “binds”.

B2: LRAPSWFD (peptide)
peptide: LRAPSWFD
notes: pin-immobilised 8-mer of human αB crystallin; also called peptide 28
Turning to B2, the binding result with Porcine Citrate synthase [2] is “binds”.

Consider EERQDE, for which the “TTR fibrillation, ThT fluorescence, 1:1 peptide:TTR (16 µM)” value (“TTR fibrillation, ThT fluorescence” for short) in the experiment with transthyretin is roughly 100 % inhibition. Besides, the “β2m fibrillation, ThT fluorescence, 1:1 peptide:β2m (29 µM)” value (“β2m fibrillation, ThT fluorescence” for short) in the experiment with β2-microglobulin was roughly 100 % inhibition.

HEER: the “TTR fibrillation, ThT fluorescence” value with transthyretin is roughly 100 % inhibition.

For HGKHEERQDE, in the experiment with Amyloid-beta (1-42), the “pH induced aggregation of amyloid-beta at pH 5.2, light scattering 360 nm (amyloid-beta alone = 100%)” value was determined as 30 % aggregation. In the experiment with beta amyloid, the “Δfluorescence (Aβ), Thioflavin T, 72 h at 50° C (no chaperone: 1,324,974,048)” value (“Δfluorescence … (no chaperone: 1,324,974,048)” for short) was 7.96e+08. Besides, the “Δfluorescence (γD crystallin), Thioflavin T, 72 h at 50° C (no chaperone: 888,803,840)” value (“Δfluorescence … (no chaperone: 888,803,840)” below) with Human γD crystallin [3] came to 7.34e+08.

B3: FYLRPPSF (peptide)
peptide: FYLRPPSF
notes: pin-immobilised 8-mer of human αB crystallin; also called peptide 24
Regarding B3, the binding result in the experiment with Human γD crystallin [1] and in the experiment with Porcine Citrate synthase [2] was “binds” each time.

B4: LTVNGPRK (peptide)
peptide: LTVNGPRK
notes: pin-immobilised 8-mer of human αB crystallin; also called peptide 72
B4: the binding result in the experiment with Porcine Citrate synthase [2] is “binds”.

B5: SFLRAPSW (peptide)
peptide: SFLRAPSW
notes: pin-immobilised 8-mer of human αB crystallin
For B5, the binding result with Human γD crystallin [1] was “binds”.

B6: GVLTVNGP (peptide)
peptide: GVLTVNGP
modifications: also: covalently bound to polyethylene pin
notes: pin-immobilised 8-mer of human αB crystallin; also called β9
As for B6, the binding result with Porcine Citrate synthase [4] and with Human γD crystallin [1] was “binds” in each case.

B7: SLSPFYLR (peptide)
peptide: SLSPFYLR
notes: pin-immobilised 8-mer of human αB crystallin; also called peptide 22
Consider B7, for which the binding result with Human γD crystallin [1] and with Porcine Citrate synthase [2] was “binds” throughout.

B8: RTIPITRE (peptide)
peptide: RTIPITRE
notes: pin-immobilised 8-mer of human αB crystallin; also called peptide 79
Regarding B8, the binding result with Porcine Citrate synthase [2] is given as “binds”.

ERTIPITRE: the “Δfluorescence … (no chaperone: 1,324,974,048)” value with beta amyloid was found to be 5.77e+08. For the same molecule, the “Δfluorescence … (no chaperone: 888,803,840)” value with Human γD crystallin [3] worked out at 6.11e+08.

B9: WIRRPFFP (peptide)
peptide: WIRRPFFP
notes: pin-immobilised 8-mer of human αB crystallin; also called peptide 5
For B9, the binding result in the experiment with Human γD crystallin [1] and with Porcine Citrate synthase [2] was “binds” each time.

B10: FISREFHR (peptide)
peptide: FISREFHR
notes: pin-immobilised 8-mer of human αB crystallin; also called peptide 57
Turning to B10, in the experiment with Porcine Citrate synthase [2], the binding result is on record as “binds”.

B11: IAIHHPWI (peptide)
peptide: IAIHHPWI
notes: pin-immobilised 8-mer of human αB crystallin; also called peptide 2
B11: the binding result in the experiment with Human γD crystallin [1] is listed as “binds”.

EERQ: in the experiment with β2-microglobulin, the “β2m fibrillation, ThT fluorescence” value was roughly 100 % inhibition.

B12: FPFHSPSR (peptide)
peptide: FPFHSPSR
notes: pin-immobilised 8-mer of human αB crystallin; also called peptide 8
B12: in the experiment with Porcine Citrate synthase [2], the binding result is listed as “binds”.

B13: LTITSSLS (peptide)
peptide: LTITSSLS
modifications: also: covalently bound to polyethylene pin
notes: pin-immobilised 8-mer of human αB crystallin; also called β8
For B13, the binding result with Human γD crystallin [1] and in the experiment with Porcine Citrate synthase [2] was “binds” each time.

Take LTITSSLSSDGV: the “Δfluorescence … (no chaperone: 1,324,974,048)” value in the experiment with beta amyloid was 3.52e+08. For the same molecule, the “Δfluorescence … (no chaperone: 888,803,840)” value with Human γD crystallin [3] turned out to be 6.75e+08.

STSLSPFYLRPPSFLRAP: the “Δfluorescence … (no chaperone: 1,324,974,048)” value with beta amyloid is 4.78e+08. Also, in the experiment with Human γD crystallin [3], the “Δfluorescence … (no chaperone: 888,803,840)” value was found to be 6.06e+08.

For the molecule HGKHEERQ, the “TTR fibrillation, ThT fluorescence” value with transthyretin was roughly 100 % inhibition.

B14: HGFISREF (peptide)
peptide: HGFISREF
notes: pin-immobilised 8-mer of human αB crystallin; also called peptide 56
B14: the binding result with Human γD crystallin [1] was “binds”.

Take DRFSVNLDVKHFS: the “protection against thermal aggregation at 50° C, light scattering 340 nm, 50:1 peptide:target” value (with Bovine βH crystallin; in experiment [5]) was roughly 30 % protection each time. Further, in the experiment with Amyloid-beta (1-42), the “pH induced aggregation of amyloid-beta at pH 5.2, light scattering 360 nm (amyloid-beta alone = 100%)” value came out at 4 % aggregation. Moreover, the “Δfluorescence … (no chaperone: 1,324,974,048)” value with beta amyloid is 2.64e+08. Further, the “Δfluorescence … (no chaperone: 888,803,840)” value with Human γD crystallin [3] is 6.61e+08.

B15: EFHRKYRI (peptide)
peptide: EFHRKYRI
notes: as for B5
As for B15, in the experiment with Human γD crystallin [1], the binding result was “binds”.

B16: FSVNLDVK (peptide)
peptide: FSVNLDVK
modifications: also: covalently bound to polyethylene pin
notes: pin-immobilised 8-mer of human αB crystallin; also called β3
As to B16, the binding result in the experiment with Human γD crystallin [1] and with Porcine Citrate synthase [2] was “binds” each time.

Regarding RQDE, the “β2m fibrillation, ThT fluorescence” value with β2-microglobulin is roughly 100 % inhibition.

With LTITSSLSDGV, the “protection against thermal aggregation at 50° C, light scattering 340 nm, 50:1 peptide:target” value (in the experiment with Bovine βH crystallin; in experiment [5]) was roughly 30 % protection each time. Also, the “pH induced aggregation of amyloid-beta at pH 5.2, light scattering 360 nm (amyloid-beta alone = 100%)” value in the experiment with Amyloid-beta (1-42) was 15 % aggregation.

B17: PFFPFHSP (peptide)
peptide: PFFPFHSP
notes: pin-immobilised 8-mer of human αB crystallin; also called 13 PFFPFHSP20
For the molecule B17, in the experiment with Human γD crystallin [1], the binding result is listed as “binds”.
